In PMC9588060:
pEC50: −log10 of the molar value.

Columns and labels:
PlGF = PlGF (UniProt P49763); assay: ELISA; details: Fc fusion
hVEGFA165 (human) = hVEGFA165 (human) (UniProt P15692); assay: ELISA; details: Fc fusion
[1] = molecular target: PD-L1 (coated in the ELISA) (not stated (human or mouse PD-L1 coated)) (UniProt Q9NZQ7); assay: ELISA; human PD-L1
[2] = molecular target: PD-L1 (coated in the ELISA) (not stated (human or mouse PD-L1 coated)) (UniProt Q9NZQ7); assay: ELISA; mouse PD-L1; details: Fc fusion

Chain of Ate-Grab (P17948 whole entry, looked up): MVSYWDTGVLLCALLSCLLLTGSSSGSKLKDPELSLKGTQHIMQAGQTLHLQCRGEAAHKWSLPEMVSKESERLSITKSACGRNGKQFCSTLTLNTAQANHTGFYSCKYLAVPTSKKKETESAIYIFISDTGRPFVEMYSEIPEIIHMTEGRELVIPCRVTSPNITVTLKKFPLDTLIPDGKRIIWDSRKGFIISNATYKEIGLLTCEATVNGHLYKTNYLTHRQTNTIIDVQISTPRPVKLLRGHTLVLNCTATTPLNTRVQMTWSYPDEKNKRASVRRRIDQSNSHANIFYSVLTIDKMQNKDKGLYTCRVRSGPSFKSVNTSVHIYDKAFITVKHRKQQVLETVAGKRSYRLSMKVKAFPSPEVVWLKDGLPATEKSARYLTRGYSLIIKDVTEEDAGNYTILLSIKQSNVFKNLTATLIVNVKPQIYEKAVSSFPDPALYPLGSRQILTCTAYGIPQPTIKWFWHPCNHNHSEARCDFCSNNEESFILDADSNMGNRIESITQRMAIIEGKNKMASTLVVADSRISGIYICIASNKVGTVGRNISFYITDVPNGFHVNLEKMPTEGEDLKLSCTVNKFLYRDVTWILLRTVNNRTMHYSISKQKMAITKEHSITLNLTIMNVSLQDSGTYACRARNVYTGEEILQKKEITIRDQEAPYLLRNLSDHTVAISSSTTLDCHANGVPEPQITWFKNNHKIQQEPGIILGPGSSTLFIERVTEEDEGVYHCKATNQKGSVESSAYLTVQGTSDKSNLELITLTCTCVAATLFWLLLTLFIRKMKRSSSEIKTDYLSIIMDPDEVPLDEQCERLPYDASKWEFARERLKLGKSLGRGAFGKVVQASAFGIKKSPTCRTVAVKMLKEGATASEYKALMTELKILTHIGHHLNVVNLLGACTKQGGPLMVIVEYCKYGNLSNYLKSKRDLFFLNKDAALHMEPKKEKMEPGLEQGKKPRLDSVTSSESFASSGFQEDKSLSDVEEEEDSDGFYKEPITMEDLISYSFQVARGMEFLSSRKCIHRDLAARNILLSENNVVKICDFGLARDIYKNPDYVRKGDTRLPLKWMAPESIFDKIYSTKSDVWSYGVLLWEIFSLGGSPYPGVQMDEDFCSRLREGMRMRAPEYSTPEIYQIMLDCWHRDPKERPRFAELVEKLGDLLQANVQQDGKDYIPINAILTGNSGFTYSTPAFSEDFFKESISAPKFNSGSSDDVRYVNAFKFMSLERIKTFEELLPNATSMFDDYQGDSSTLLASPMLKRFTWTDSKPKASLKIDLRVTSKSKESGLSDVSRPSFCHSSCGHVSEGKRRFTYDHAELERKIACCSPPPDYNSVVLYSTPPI
Chain of PD-L1 (coated in the ELISA) (not stated (human or mouse PD-L1 coated)) (Q9NZQ7 19-290): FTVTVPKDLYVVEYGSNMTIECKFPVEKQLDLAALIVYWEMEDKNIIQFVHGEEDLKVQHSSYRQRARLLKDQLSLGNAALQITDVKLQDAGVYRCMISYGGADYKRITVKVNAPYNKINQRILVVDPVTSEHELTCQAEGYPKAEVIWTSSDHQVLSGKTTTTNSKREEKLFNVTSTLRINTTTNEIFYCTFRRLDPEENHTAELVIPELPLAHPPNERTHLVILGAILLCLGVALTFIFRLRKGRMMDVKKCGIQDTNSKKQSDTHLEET
Chain of VEGF-Grab (P17948 whole entry, looked up): as the sequence (P17948 whole entry, looked up) above
Chain of PlGF (P49763 19-221): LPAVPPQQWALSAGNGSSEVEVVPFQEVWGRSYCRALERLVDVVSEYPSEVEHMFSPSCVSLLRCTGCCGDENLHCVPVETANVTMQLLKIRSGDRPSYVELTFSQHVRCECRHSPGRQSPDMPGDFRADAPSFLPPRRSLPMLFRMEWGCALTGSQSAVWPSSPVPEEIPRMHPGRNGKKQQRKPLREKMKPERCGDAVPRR
Chain of hVEGFA165 (human) (P15692 other isoform, or with tags, fused parts or gaps): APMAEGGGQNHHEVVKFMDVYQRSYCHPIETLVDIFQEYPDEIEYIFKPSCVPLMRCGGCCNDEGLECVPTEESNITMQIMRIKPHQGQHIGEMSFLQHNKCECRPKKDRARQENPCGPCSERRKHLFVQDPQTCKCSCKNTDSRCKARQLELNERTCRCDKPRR

VEGF-Grab (from UniProt P17948)
pEC50 (PlGF): 9.21
pEC50 (hVEGFA165 (human)): 9.16

Ate-Grab (from UniProt P17948)
pEC50 (PlGF): 9.03
pEC50 (hVEGFA165 (human)): 9.19
pEC50 ([1]; Fc fusion): 9.65
pEC50 [2]: 9.43

Atezolizumab
pEC50 [1]: 9.97
